Results taken from patent US6127178A, “Apoptotic peptides” (The Regents of the University of California, priority 1998, dated 2000).
Entries after “also recorded” stand apart in the source; their conditions may differ.

B1: Id3: Id family helix-loop-helix protein expressed in 32D.3 cells from pMAMNeo (protein, UniProt P41133 1-119, looked up)
DNA-binding protein inhibitor …: MKALSPVRGCYEAVCCLSERSLAIARGRGKSPSTEEPLSLLDDMNHCYSRLRELVPGVPRGTQLSQVEILQRVIDYILDLQVVLAEPAPGPPDGPHLPIQTAELTPELVISKDKRSFCH
B2: Id2: full-length Id2 helix-loop-helix protein expressed from transfected cDNA (pMAMNeo dex-inducible or tet-regulated vector) (protein, UniProt Q02363 1-134, looked up)
chain: MKAFSPVRSVRKNSLSDHSLGISRSKTPVDDPMSLLYNMNDCYSKLKELVPSIPQNKKVSKMEILQHVIDYILDLQIALDSHPTIVSLHHQRPGQNQASRTPLTTLNTDISILSLQASEFPSELMSNDSKALCG
modifications: full-length

Columns and labels:
32D.3 myeloid cells [1] = test: Viability by trypan blue dye exclusion in 32D.3 transfectants; type: cell-based, mouse; details: for rates of cell death: following withdrawal of IL-3, relative to control cells
Source text: cDNA constructs and establishment of cell lines. The mouse 32D.3 myeloid cell line was maintained in RPMI 1640 medium (GIBCO) supplemented with 10% fetal calf serum and 20U of IL-3 per ml as previously described (3, 12). The human IdI, Id2 and Id3 cDNAs (5, 6, 11) were introduced into the pMAM-Neo expression plasmid (Clontech, Palo Alto, Calif.) at the Xhol site. Mutations in Id2 and Id3 were generated by the polymerase chain reaction. To prepare an N-terminus deletion mutant, a 0.3 kb SalI-XhoI fragment lacking the region encoding amino acids 1-34 was inserted into the pMAM vector. A C-terminally truncated Id2 was prepared by removing a SmaI fragment containing cDNA corresponding to amino acids 93-135. Id2ΔHLH was prepared as previously described (34) and subcloned into the pMAM vector at the XhoI site. The primary structure of all mutants was confirmed by DNA sequencing. 32D.3 cells were electroporated as previously described with 10 μg of linearized plasmid DNA (12). Transfected cells were selected in medium containing 0.4/mg/ml G418 and single cell clones were isolated by limiting dilution, as well as pools of transfectants. To prepare additional cultures, drug-resistant clones and pools of clones were prepared by transfecting cells with pMAMNeo DNA alone and pMAMNeo containing Id2 cDNAs in the antisense orientation. 32D.3 cells were grown in suspension and maintained at equivalent exponential growth phases by seeding at 1×10^5 cells per ml culture medium. All subsequent analyses were performed using cells harvested at 0.5-1×10^6 cells per ml.
Viability and apoptosis assays. To investigate the effects of Id gene expression upon viability, cells growing exponentially in the presence of IL-3 (20 U/ml) were treated with dexamethasone for 16 hours. The cells were collected by centrifugation at 200×g for 10 min, washed twice in PBS, and resuspended in RPMI medium with 10% fetal bovine serum without IL-3. The number of viable cells was determined at various times after IL-3 withdrawal by trypan blue dye exclusion. […]

U20S osteosarcoma cells = test: DNA content by flow cytometry in tet-regulated U20S transfectants; type: cell-based; details: clone 9, four days after removal of tetracycline (1000 ng/ml), in serum
Procedure: To prepare a recombinant expression construct encoding Id2 which could be regulated by the addition of tetracycline to the culture media, the Kpn1/HindIII filled-in fragment of Id2 cDNA was inserted into the pUHD 10-3 vector (26) at EcoRI blunt-ended sites to prepare a tTA-responsive Id2 expression vector. DNA from pUHD-10-3Id2 was used in addition to DNA from pTet-TAk (GIBCO), encoding the tetracycline-regulatable tTA protein. Stable transfectants were prepared in the U20S osteosarcoma cell line by performing a 3 vector transfection using LipofectAmine (GIBCO) at a DNA ratio of 5:5:1 between pTet-Id2:ptet-TAk:pcDNA-3 and selected in the presence of DME/10%FBS/G418 (0.6 mg/ml)/tetracycline (5 μg/ml) media was changed after 2 days. […] To show expression of Id2, cells were trypsinized and plated with varying concentrations of tetracycline (0-1000 ng/ml).
To determine the extent of apoptosis in U20S cells transfected with pTet-Id2 DNA, cells were plated at a density of 5×10^5 cells per p100 plate and allowed to adhere for 24 hours in the presence of 1000 ng/ml tetracycline (tet). Then the media was changed to either 0 or 1000 ng/ml tet after 2 washes with PBS. The cells were maintained in the culture for 4 days before harvesting by trypsinization (floating cells were also harvested). […] DNA content was determined by flow cytometry on a FACSort (53).

32D.3 myeloid cells [2] = test: Apoptosis (TUNEL) assay in 32D.3 transfectants; type: cell-based, mouse; details: following IL-3 withdrawal, dex-induced expression
Source text: cDNA constructs and establishment of cell lines. The mouse 32D.3 myeloid cell line was maintained in RPMI 1640 medium (GIBCO) supplemented with 10% fetal calf serum and 20U of IL-3 per ml as previously described (3, 12). The human IdI, Id2 and Id3 cDNAs (5, 6, 11) were introduced into the pMAM-Neo expression plasmid (Clontech, Palo Alto, Calif.) at the Xhol site. Mutations in Id2 and Id3 were generated by the polymerase chain reaction. To prepare an N-terminus deletion mutant, a 0.3 kb SalI-XhoI fragment lacking the region encoding amino acids 1-34 was inserted into the pMAM vector. A C-terminally truncated Id2 was prepared by removing a SmaI fragment containing cDNA corresponding to amino acids 93-135. Id2ΔHLH was prepared as previously described (34) and subcloned into the pMAM vector at the XhoI site. The primary structure of all mutants was confirmed by DNA sequencing. 32D.3 cells were electroporated as previously described with 10 μg of linearized plasmid DNA (12). […]
Expression of Id genes and immunoblot analysis. […] The expression of Bax proteins was monitored using a rabbit anti-Bax polyclonal sc-930 (Santa Cruz Biotechnology, Santa Cruz, Calif.). […]
Viability and apoptosis assays. […] The number of viable cells was determined at various times after IL-3 withdrawal by trypan blue dye exclusion. […]

32D.3 myeloid cells [3] = test: FACS analysis of subdiploid population in 32D.3 transfectants; type: cell-based, mouse; details: following IL-3 removal
Procedure: Id2 enhances apoptosis in 32D.3 myeloid cells following IL-3 withdrawal. Since Id2 levels in 32D.3 cells increased in association with IL-3 withdrawal, we examined the effect of increasing Id2 expression on the apoptotic response of these cells. 32D.3 myeloid progenitor cells were transfected with the dexamethasone (dex)-inducible pMAMNeo expression vector containing a full-length Id2 cDNA. The expression of Id2 in clones and pools of transfectants was determined in immunoblots, and we observed a 3-4 fold increase in Id2 protein levels upon treatment of the cells with dex for 16 hours as compared to cells transfected with vector DNA or with a pMAMNeo recombinant plasmid with Id2 in the antisense orientation.

Bax = test: Immunoblot of apoptosis regulators in 32D.3 transfectants; type: cell-based, mouse
Procedure: Expression of Id genes and immunoblot analysis. Id gene expression was induced by addition of 1 μM dexamethasone (Sigma) for 16 hours. Cells were then collected at the indicated times by centrifugation, washed in PBS, and whole cell lysates were prepared by resuspending the pellets in RIPA buffer (150 mM NaCl, 1 mM EDTA, 1% Nonidet P-40, 1% sodium deoxycholate, 20 mM Tris-HCl pH 7.2) containing protease inhibitors (1 μM phenylmethyl-sulfonylfluoride, 0.01 μM benzamidine HCl, 1 μg/ml o-phenanthroline, and 0.5 μg/ml each of antipain, leupeptin, pepstatin A, and aprotinin). The lysates were then clarified by centrifugation and examined by 12.5% SDS-PAGE. Western blot analysis was carried out to detect expression of Id proteins using the sc-489 rabbit polyclonal antibody against Id2 (Santa Cruz Biotechnology, Santa Cruz, Calif.) and rabbit polyclonal antibodies generated against bacterially expressed Id1 or Id3 (C. Hernandez, unpublished). The expression of Bax proteins was monitored using a rabbit anti-Bax polyclonal sc-930 (Santa Cruz Biotechnology, Santa Cruz, Calif.). Briefly, blots were washed with blocking buffer [4% milk powder and 0.2% Tween-20 in phosphate-buffered saline (PBS)], incubated with anti-Id2 or Bax antibodies (used at a 1:1000 dilution in blocking buffer), washed, and incubated with peroxidase-conjugated […]. […]

Row | Molecule | rates of cell death (32D.3 myeloid cells [1]) | apoptotic cells with subdiploid DNA content (U20S osteosarcoma cells) | extent of apoptosis by the TUNEL assay (32D.3 myeloid cells [2]) | subdiploid population, indicative of apoptotic DNA fragmentation (32D.3 myeloid cells [3]) | levels of other known regulators including Bad, Bcl-2, Bcl-XL and Bcl-XS (Bax; cultured in IL-3) | Bax levels (Bax; cultured in IL-3, relative to vector transfected cells) | effects on viability (32D.3 myeloid cells [1]; presence of IL-3, 16 hours of treatment with dex)
1 | B1 | without effect |  |  |  |  |  | 
2 | B2 | dramatically accelerated rates of death | a large proportion of apoptotic cells with subdiploid DNA content | significantly elevated apoptosis; also recorded: concentration-dependent; also recorded: expected enhancement in apoptosis | significantly augmented | no changes | elevated | only minor effects on viability
